Experimental data reported in publication PMC5910193.

Key:
[1] = biological target: Single4 monobody displayed on the yeast surface (human) (UniProt P02751); test: flow cytometry on cells
[2] = biological target: PEbody with N-terminal 6x His tag (human) (UniProt P02751); test: BLI

fold R-PE binding capability against G9 [1]: 500 fold
Kd [2]: 5.7 nM
Substance: R-Phycoerythrin (complex)
